This is an account of results in the nanobody polyreactivity screen of Harvey et al. (2022).

This series can be described thus: yeast display, Sf9 membrane polyspecificity reagent, FACS + sequencing; frameworks hold sequencing errors. Put shortly: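 Galactose-induced (36–48 hours) yeast carrying a synthetic nanobody display library were exposed to 10% biotinylated, detergent-solubilized Sf9 membrane reagent at 4 °C for 1 hour. FACS followed streptavidin microbead enrichment, using low and high (top ~1%) gates for expression (anti-HA) and reagent binding (streptavidin). Colony PCR, MiSeq 2 × 250 sequencing and CDR-length filtering followed. Labels for polyreactivity reflect the gate of origin.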
Regarding “QVQLVESGGGLVQAGGSLRLSCAASGSTLTWNAMGWYRQAPGKERELVATISYSGSSTYYADSVKGRFTISRDNAKNSVYLQMFSLKPEDTAGYYCNAQELAYGHGFDSWGLGTQVTVSS”, the “polyreactivity (PSR sort gate)” value is given as “low polyreactivity”.

With “QVQLVESGAGLVQAGGSLRLSCSAYGFIFGFYAMGWSRQAPGKERELVADITSSGGSTYYADSVKGRFTLSRDNAKNTVYLQMNSLKPEDTAVYYCAADGWWHNFYPGNGLDYWGQGTQVTVSS”, the “polyreactivity (PSR sort gate)” value was “low polyreactivity”.

Regarding “QVQLVESGGGLVQAGGILRLSCAASGSNFGYYVMGWYRQAPGKERELVAGISTGGSTYYADSVKGRFTISRDNAKNTVYLQMNSLKPEDTAVYYCAADYTLSYWGFVYWGQGTQVTVSS”, the “polyreactivity (PSR sort gate)” value is “low polyreactivity”.

For the sequence “QVQLVESGGGLVQAGGSLRLSCAASGLIFYKNAMGWYRQAPGKEREFVAAISRSGASTYYADSVKARFTISRDNAKNTVYLQMNSLKPEDTAVYYCAARAGANYRMDYWGQGTQVTVSS”, the “polyreactivity (PSR sort gate)” value is on record as “high polyreactivity”.

For the sequence “QVQLVESGGGLVQAGGSLRLSCAASGYTFTSNDMGWYRQAPGKERELVAAITWSGGTTYYADSVKGRFTISRDNAKNTVYLQMNSLKPEDTAVYYCAAESTLPIIDRDDYWGQGTQVTVSS”, the “polyreactivity (PSR sort gate)” value was “low polyreactivity”.

Consider “QVQLVESGGGLVQAGGSLRLSCAASGLTFSRYAMGWYRQAPGKERELVAAITWSGSSTYYADSVKGRFTISRDNAKNTVYLQMNSLKPEDTAVYYCAARYGYSRGPYYRSDYWGQGTQVTVSS”, for which the “polyreactivity (PSR sort gate)” value is recorded as “high polyreactivity”.

On to “QVQLLESGGGLVQAGGSLRLSCAASGITFEHYAMGWYRPAPGKERELVAAITWSGDSTNYADSVKGRFTISRDNAKNTVYLQMNSLNPEDTAVYYCAAYAYAGLYSGTWGYDYWGQGTQVTVSS”, for which the “polyreactivity (PSR sort gate)” value is “low polyreactivity”.

Regarding “QLQLVESGGGLVQEGGSLRLSCAASGSTFVYNDKGWYRQAPGKDRELVAAITSGVRTYYSDYVKGRFTISRDNAKNTVYLQMNSLKPEDTALYYCGTGWRYAQYYYWGQGTQVTVSS”, the “polyreactivity (PSR sort gate)” value is on record as “high polyreactivity”.

For “QVQLVESGGGLVQAGGSLRLSCAASGLIFRYYAMGWYRQATGKEREFVAAITWRTGSTYYADSVKGRFTISRDNAKNTVYLQMNSLKPEDTAVYYCAARGGRRYDYWGQGTQVTVSS”, the “polyreactivity (PSR sort gate)” value was “high polyreactivity”.

With “QVQLVESGGGLVQAGGSLRLTCAASGRTFTLNAMGWYRQAPGKERELVADIRRRGGSTYYADSVKGRFTISRDNAKNTVYVQMNSRKAADTAVYYCATHGRWYKLPTGWRPYDYWGLGTQVTVSS”, the “polyreactivity (PSR sort gate)” value is given as “high polyreactivity”.

For the sequence “QVQLVESGGGLVQAGGSLRLSCAASGSIFGFNAMGWYRQAPGKERELVAAINGGGTTYYADSVKGRFTISRDNAKNTVYLQMNSLIPEDTAVYYCAATPNGYYYLGYDYWGQGTQVTVSS”, the “polyreactivity (PSR sort gate)” value is recorded as “low polyreactivity”.

Consider “QVQLVESGGGLVQAGGSLRLSCAASGITFPGNAMGWYRQAPGKERELVAVISFGDGGTYYADSVKGRFTISRDNAKNTVYLQMNSLKPEDTAVYYCATDYQSTSVWGGHFVINPYDYWGQGTQVTVSS”, for which the “polyreactivity (PSR sort gate)” value is “low polyreactivity”.

As for “QVQLVESGGGLVQAGGSLRLSCAASGSIFWWNAMGWYRQAPGKERELVAGITKIGSSTYYADSVKGRFTISRDNAKNTVYLQMNSLKPEDTAVYYCNAYGPNIYSSRYDYWGQGTQVTVSS”, the “polyreactivity (PSR sort gate)” value is reported as “low polyreactivity”.

Regarding “QVQLVESCGGLVQAGGSLRLSCAASGRTFGRNAMGWYRQAPGEREMVAVISRGGSTYYADSVKGRFTISRDNAKNTVYLQMNSLKPEDTAVYYCNADTVYTRTAPYDYWGQGTQVTVSS”, the “polyreactivity (PSR sort gate)” value is recorded as “low polyreactivity”.

On to “QVQLVESGGGLVQAGGSLRLSCAASGSIFTKYAMGWYRQAPGKERELVAGISRTTGSTYYADSVKGRFTISRDNAKNTVYLQMNSLKPEDTAVSYCNAVYGHGNYFRSEDDYWGQGTQVTVSS”, for which the “polyreactivity (PSR sort gate)” value is on record as “high polyreactivity”.

Take “QVQLVESGGGLVQAGGSLRLSCAASGRIFNQYAMGWYRQAPGKERELVAAISRRGGSTYYADSVKGRFTISRDNAKNTVYLQMNSLKPEDTAVYYCAAVGGYASYFHLYYYWGQGSQVTVSS”: the “polyreactivity (PSR sort gate)” value is “high polyreactivity”.

As to “QVQLVESGGGLVQAGGSLRLSCAASGFTFPNYAMGWYRQAPGKERELVAAITSGGGRTNYADSVKGRFTISRDNAKNTVYLQMNSLKPEDTAVYYCNAEKTYLGSRYRPYNYWGQGTQVTVSS”, the “polyreactivity (PSR sort gate)” value is given as “low polyreactivity”.

Take “QVQLVESGGGLVQAGGSLRLSCAASGRTFGYYAMGWYRQAPGTERELVASISSRGGSSYYADSVKGRFTISRDNAKNTVYLQMNSLKPEDTAVYYCNAPSWSGSRTYYYWGQGTQVTVSS”: the “polyreactivity (PSR sort gate)” value was “high polyreactivity”.

As to “QVQLVESGGGIVQAGGSLRLSCAASGLIFYTYAMGWYRQAPGKERELVATISWDVDSTNYADSVKGRFTISRDNAKNTVYLQMNSLKPEDTAGYYCAVDSTFDSYWYWVDYYEYGYWGQGTQVTVSS”, the “polyreactivity (PSR sort gate)” value was “high polyreactivity”.

As to “QVQLVESGGGLVQAGGSLRLSCAASGRTFRINTMGWYRQAPGKERELVATITGSGGSTYYADSVKGRFTISRDNAKNTVYLQMNSLKPEDTAVYYCAVRWYDQVSRRGIGYYWGQGTQVTVSS”, the “polyreactivity (PSR sort gate)” value is given as “low polyreactivity”.

For “QVQLVESGGGLDQAGGSLRLSCAASVLIFNIYARGWYRQAPGKERELVATIRYSGGSTNYADSVKGRFTISRDNAKNTVYLQMNSLKPEDTAVYYCNAGYYPSGYDYWGQGTQVTVSS”, the “polyreactivity (PSR sort gate)” value is recorded as “low polyreactivity”.

Take “QVQLVESGGGLVQAGCSLRLSCAASGRIFRRYAMGWYRQAPGKERELVAAITSGGGSTYYADSVKGRFTISRDNAKNTVYLQMNSLKPEDTAVYYCNKSSWEFVKGKYGYWGQGTQVTVSS”: the “polyreactivity (PSR sort gate)” value is given as “low polyreactivity”.

With “QVQLVESGGGLVQAGGSLRLSCAASGSIFDGYAMGWYRQAPGKERELVAAISSGGSTYYADSVKGRFTISRDNAKNTVYLQMNSLKPEDTAVYYCNRVRRRVSTSIYNYWGQGTQVTVSS”, the “polyreactivity (PSR sort gate)” value is recorded as “high polyreactivity”.

For “QVQLVESGGGLVQAGGSLRLSCAASGRTFYQYDMGWYRQEPGKERAFVADIDWSGGSTYYADSVKGRFTISRDNAKNTVYLQMNSLKPEDTAVYYCNADAYPHPVVGYDYWGQGTQVTVSS”, the “polyreactivity (PSR sort gate)” value is given as “low polyreactivity”.

For “QVQLVESGGGLVQAGGSLRLSCAASGLTLQPYAMGWSRQAPRNERELVAAITSGGSTYYADSVKGRFTISRDNAKNTVYLQMNSLKPEDTAVYYCAATVSYDFGYVAVSYDYWGQGTQVTVSS”, the “polyreactivity (PSR sort gate)” value is given as “low polyreactivity”.

Turning to “QVQLVESGGGLVQAGGSLRLSCAASGRTFRLYAMGWYRQAPGKERELVAAITENGGSTYYADSVKGRFTISRDNAKNTVYLQMTSLKPEDTAVYYCAAKRYSRYNYWGQCTQVTVSS”, the “polyreactivity (PSR sort gate)” value is given as “high polyreactivity”.

“QVQLVESGGGLVQAGGSLRLSCAASGITFYYYAMGWYRQAPGKERELVAAISSGGRTYYADSVKGRFTISRDNAKNTVYLQMNSLKPEDTAVYYCAASFLVTSREYDYWGQGTQVTVSS”: the “polyreactivity (PSR sort gate)” value is on record as “high polyreactivity”.

As to “QVQLVESGGGIVQAGGSLRLSCAASGNTFHTYAMGWNRQAPVKERELVAAISSRGVGTYYADSVKGRFTISRDNAKNTVYLQMNSLKPEDTAVYYCAARHHPEYYYWGQGTQVTVSS”, the “polyreactivity (PSR sort gate)” value was “high polyreactivity”.

For the sequence “QVQLVESGGGLVQAGGSLRLSCAASGSTFVINAMGWYRQAPGKERELVAAIDFSGGSTYYADSVKGRFTISRDNAKNTVYLQMNSLKPEDTAVYYCAAVLSSYGYGGYTWYDYEYWGKGTQVTVSS”, the “polyreactivity (PSR sort gate)” value is “high polyreactivity”.

Take “QVQLVESGGGLVQAGGSLRLSCAASGSIFRVNAMGWYRQAPGKERELVAAISCRGASTYYADSVKGRFTISRDNAKNTVYLQMNSLKPVDTAVYYCAAYGYSIGPYYYWGQGTQVTGSS”: the “polyreactivity (PSR sort gate)” value is listed as “high polyreactivity”.

For the sequence “QVQLVESGGGLVQAGGSLRLSCAACGLTITFYAMGWYRQAPGKERELVAAISRSGGSTYYADSVKGRFTISRDNAKNTVYLQMNSLKPEVTAVYYCAVVGGYYEFDYEGDYWGQGTQVTVSS”, the “polyreactivity (PSR sort gate)” value is given as “low polyreactivity”.

On to “QVQLVESGGGIVQAGGSLRLSCASSGRTFFWYAMVWYRQAPGKERELVAAITYRGGGTYYADSVKGRFTISRDNAKNTVYLQMNSLKPEDTAVYYCAAEYWVGVYLYDYWGQGTQVTVSS”, for which the “polyreactivity (PSR sort gate)” value was “high polyreactivity”.

In the case of “QVQLVESGGGLVQAGGSLRLSCAASGSIFPIYAMGWYRQAPGKERELVAAINRSGGSTYYADSVKGRFTISRDNAKNTVYLQMNSLKPEDTAVYYCNADYGYHNQLFWGYYGWSSDHWGQGTQVTVSS”, the “polyreactivity (PSR sort gate)” value is listed as “low polyreactivity”.

On to “QVQLVESGGGLVQAGGSLRLSCAASGRTFQRNAMGWYRQAPGKERELVAAISGGGSTYYADSVKGRFTISRDNAKNTVYLQMNSLKPEDTAVYYCAARSATRLYYFSRGYDYWGQGTQVTVSS”, for which the “polyreactivity (PSR sort gate)” value is listed as “low polyreactivity”.

On to “QVQLVESWGGLVQAGGSRRLSCDASGRTFVTNAMGWYRQARGKERELVAAISGTGGSTYYADSVKGRFTISRDNAKNTVFLHMNRLKPEDTAVYSWAADTYIYGLEYDYWGQGTQVTVSS”, for which the “polyreactivity (PSR sort gate)” value is given as “low polyreactivity”.

In the case of “QVQLVESGGGLVQAGGSLRLSWAASGSTFEYNVMGWYRQAPGKERELVAAITQGDGGSTYYADSVKGRFTISRDNAKKTVYLQKNSLIPEDTAVYYCNAGYFTEYNSWGQGTEVTVSS”, the “polyreactivity (PSR sort gate)” value is on record as “high polyreactivity”.

In the case of “QVQLVESGGGLVQAGGSLRLSCAASGSTFTVYAMGWYRQAPGKERELVAVITGSGGSTYYADSVKGRFTISRDNAKNTVYLQMNSLKPEDTAVYYCAKEPGENWTVSWRDFDYWGQGTQVTVSS”, the “polyreactivity (PSR sort gate)” value is given as “low polyreactivity”.

Turning to “QVQLVESGGGLVQAGGSLRLSCAASGRTFRWNAMGWYRQAPGKERELVARISWRGGSTYYADSVKGRFTISRDNAKNTVYLQMNSLKPEDTAVYYCAATSPYYRTGYDYWGQGTQVTVSS”, the “polyreactivity (PSR sort gate)” value is “high polyreactivity”.

Take “QVQLVESAGGLVQAGGSLSLSCAASGINFAWYVMGWYRQEPGKERELVAAITQSGGSTFYADSVKGRFTISRDNAKNTVYLQMNSLKPEDTAVYYCAAESRSTWIHSRDYWGQGTQVTVSS”: the “polyreactivity (PSR sort gate)” value is on record as “low polyreactivity”.

Consider “QVQLVESGGGLVQAGGSLRLSCAASGRIFSSYAMGWSRPAPGKERELVAAISSSGGNTYYADSVKGRFTISRDNAKNTVYLQMNSLKPEDTAVYYCNTRWVHRDWYDYWGQGTQVTVSS”, for which the “polyreactivity (PSR sort gate)” value is listed as “high polyreactivity”.
